One test addresses T1, CRF1R receptor (UniProt P34998 24-415, limits assumed).
T1 sequence (looked up): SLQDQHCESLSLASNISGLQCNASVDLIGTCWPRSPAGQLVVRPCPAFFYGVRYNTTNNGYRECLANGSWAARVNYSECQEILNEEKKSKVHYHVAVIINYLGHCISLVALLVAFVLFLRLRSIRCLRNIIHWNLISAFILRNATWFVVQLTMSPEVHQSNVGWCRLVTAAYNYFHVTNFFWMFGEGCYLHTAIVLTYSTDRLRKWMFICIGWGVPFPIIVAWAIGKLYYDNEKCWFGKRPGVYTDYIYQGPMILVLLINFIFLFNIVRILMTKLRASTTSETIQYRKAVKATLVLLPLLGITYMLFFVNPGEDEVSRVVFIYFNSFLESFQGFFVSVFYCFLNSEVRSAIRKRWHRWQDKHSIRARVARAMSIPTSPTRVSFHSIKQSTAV
Kind of test: cell-based or functional assay.

The target of test [1] is human corticotropin-releasing factor 2a (CRF2a receptor) (human), Q13324. Kind of test: cell-based or functional assay.

*1 amine or outer side, *2 acyl side, *3 side chain or, on linkers, in order; H or OH if unused. Where no end group is shown, it is not given here. Side-chain parts run from the residue outwards. [ ]: non-standard residue; d: D form. The star is where a group is joined. C18 diacid = O=C(O)CCCCCCCCCCCCCCCCC(=O)*; C16 diacid = O=C(O)CCCCCCCCCCCCCCC(=O)*; γGlu = O=C(O)[C@H](CCC(=O)[*:2])N[*:1]; NMeI = CC[C@H](C)[C@H](NC)C(=O)O; Nva = CCC[C@H](N)C(=O)O; Abu = CC[C@H](N)C(=O)O; Pentanoyl = CCCCC(=O)*; AEEA = NCCOCCOCC(=O)O; Aib = CC(C)(N)C(=O)O

Sequence of human corticotropin-releasing factor 2a (CRF2a receptor) (human), Q13324 (Q13324 20-411): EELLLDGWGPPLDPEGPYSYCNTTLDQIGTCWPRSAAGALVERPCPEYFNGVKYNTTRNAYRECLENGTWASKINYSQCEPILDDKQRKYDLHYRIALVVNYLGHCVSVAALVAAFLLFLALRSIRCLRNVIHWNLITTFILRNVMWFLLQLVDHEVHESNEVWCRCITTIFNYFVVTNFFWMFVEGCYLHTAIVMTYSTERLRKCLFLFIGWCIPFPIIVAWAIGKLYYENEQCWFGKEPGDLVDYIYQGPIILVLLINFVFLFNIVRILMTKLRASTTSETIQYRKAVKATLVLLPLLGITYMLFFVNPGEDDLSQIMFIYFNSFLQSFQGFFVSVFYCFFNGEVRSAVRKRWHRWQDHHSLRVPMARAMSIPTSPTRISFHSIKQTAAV

B1: SEQ ID NO 45 (peptide)
peptide: Ac-VLSLD[dV]PIKLK([γGlu-C16 diacid])KILLEQEKQKKQREQAETN[Aib]QILAQV-NH2
SMILES: CC[C@H](C)[C@H](NC(=O)[C@H](CCC(N)=O)NC(=O)C(C)(C)NC(=O)[C@H](CC(N)=O)NC(=O)[C@@H](NC(=O)[C@H](CCC(=O)O)NC(=O)[C@H](C)NC(=O)[C@H](CCC(N)=O)NC(=O)[C@H](CCC(=O)O)NC(=O)[C@H](CCCNC(=N)N)NC(=O)[C@H](CCC(N)=O)NC(=O)[C@H](CCCCN)NC(=O)[C@H](CCCCN)NC(=O)[C@H](CCC(N)=O)NC(=O)[C@H](CCCCN)NC(=O)[C@H](CCC(=O)O)NC(=O)[C@H](CCC(N)=O)NC(=O)[C@H](CCC(=O)O)NC(=O)[C@H](CC(C)C)NC(=O)[C@H](CC(C)C)NC(=O)[C@@H](NC(=O)[C@H](CCCCN)NC(=O)[C@H](CCCCNC(=O)CC[C@H](NC(=O)CCCCCCCCCCCCCCC(=O)O)C(=O)O)NC(=O)[C@H](CC(C)C)NC(=O)[C@H](CCCCN)NC(=O)[C@@H](NC(=O)[C@@H]1CCCN1C(=O)[C@H](NC(=O)[C@H](CC(=O)O)NC(=O)[C@H](CC(C)C)NC(=O)[C@H](CO)NC(=O)[C@H](CC(C)C)NC(=O)[C@@H](NC(C)=O)C(C)C)C(C)C)[C@@H](C)CC)[C@@H](C)CC)[C@@H](C)O)C(=O)N[C@@H](CC(C)C)C(=O)N[C@@H](C)C(=O)N[C@@H](CCC(N)=O)C(=O)N[C@H](C(N)=O)C(C)C
Regarding B1, the “Emax (% I)” value with CRF1R receptor is 5%. Further, the EC50 [nM] (cAMP) in test [1] stood at 0.96 nM.

B2: SEQ ID NO 104 (peptide)
peptide: Ac-IVLSLD[dV]PIKLK([AEEA-AEEA-γGlu-C18 diacid])KILLEQEKQKKQREQAETN[Abu]QILAQV-NH2
SMILES: CC[C@H](NC(=O)[C@H](CC(N)=O)NC(=O)[C@@H](NC(=O)[C@H](CCC(=O)O)NC(=O)[C@H](C)NC(=O)[C@H](CCC(N)=O)NC(=O)[C@H](CCC(=O)O)NC(=O)[C@H](CCCNC(=N)N)NC(=O)[C@H](CCC(N)=O)NC(=O)[C@H](CCCCN)NC(=O)[C@H](CCCCN)NC(=O)[C@H](CCC(N)=O)NC(=O)[C@H](CCCCN)NC(=O)[C@H](CCC(=O)O)NC(=O)[C@H](CCC(N)=O)NC(=O)[C@H](CCC(=O)O)NC(=O)[C@H](CC(C)C)NC(=O)[C@H](CC(C)C)NC(=O)[C@@H](NC(=O)[C@H](CCCCN)NC(=O)[C@H](CCCCNC(=O)COCCOCCNC(=O)COCCOCCNC(=O)CC[C@H](NC(=O)CCCCCCCCCCCCCCCCC(=O)O)C(=O)O)NC(=O)[C@H](CC(C)C)NC(=O)[C@H](CCCCN)NC(=O)[C@@H](NC(=O)[C@@H]1CCCN1C(=O)[C@H](NC(=O)[C@H](CC(=O)O)NC(=O)[C@H](CC(C)C)NC(=O)[C@H](CO)NC(=O)[C@H](CC(C)C)NC(=O)[C@@H](NC(=O)[C@@H](NC(C)=O)[C@@H](C)CC)C(C)C)C(C)C)[C@@H](C)CC)[C@@H](C)CC)[C@@H](C)O)C(=O)N[C@@H](CCC(N)=O)C(=O)N[C@H](C(=O)N[C@@H](CC(C)C)C(=O)N[C@@H](C)C(=O)N[C@@H](CCC(N)=O)C(=O)N[C@H](C(N)=O)C(C)C)[C@@H](C)CC
As for B2, the “Emax (% I)” value with CRF1R receptor is 5%. In addition, the EC50 [nM] (cAMP) in test [1] amounted to 0.47 nM.

B3: SEQ ID NO 105 (peptide)
peptide: Ac-IVLSLD[dV]PIKLK([AEEA-AEEA-γGlu-C18 diacid])KILLEQEKQKKQREQAETN[Nva]QILAQV-NH2
SMILES: CCC[C@H](NC(=O)[C@H](CC(N)=O)NC(=O)[C@@H](NC(=O)[C@H](CCC(=O)O)NC(=O)[C@H](C)NC(=O)[C@H](CCC(N)=O)NC(=O)[C@H](CCC(=O)O)NC(=O)[C@H](CCCNC(=N)N)NC(=O)[C@H](CCC(N)=O)NC(=O)[C@H](CCCCN)NC(=O)[C@H](CCCCN)NC(=O)[C@H](CCC(N)=O)NC(=O)[C@H](CCCCN)NC(=O)[C@H](CCC(=O)O)NC(=O)[C@H](CCC(N)=O)NC(=O)[C@H](CCC(=O)O)NC(=O)[C@H](CC(C)C)NC(=O)[C@H](CC(C)C)NC(=O)[C@@H](NC(=O)[C@H](CCCCN)NC(=O)[C@H](CCCCNC(=O)COCCOCCNC(=O)COCCOCCNC(=O)CC[C@H](NC(=O)CCCCCCCCCCCCCCCCC(=O)O)C(=O)O)NC(=O)[C@H](CC(C)C)NC(=O)[C@H](CCCCN)NC(=O)[C@@H](NC(=O)[C@@H]1CCCN1C(=O)[C@H](NC(=O)[C@H](CC(=O)O)NC(=O)[C@H](CC(C)C)NC(=O)[C@H](CO)NC(=O)[C@H](CC(C)C)NC(=O)[C@@H](NC(=O)[C@@H](NC(C)=O)[C@@H](C)CC)C(C)C)C(C)C)[C@@H](C)CC)[C@@H](C)CC)[C@@H](C)O)C(=O)N[C@@H](CCC(N)=O)C(=O)N[C@H](C(=O)N[C@@H](CC(C)C)C(=O)N[C@@H](C)C(=O)N[C@@H](CCC(N)=O)C(=O)N[C@H](C(N)=O)C(C)C)[C@@H](C)CC
Take B3: in the test with CRF1R receptor, the “Emax (% I)” value turned out to be 10%. This molecule also came in with an EC50 [nM] (cAMP) in test [1] of 0.87 nM.

B4: SEQ ID NO 113 (peptide)
peptide: [NMeI]VLSLD[dV]PIKLK([AEEA-AEEA-γGlu-C18 diacid])KILLEQEKQKKQREQAETNAQILAQV-NH2
modifications: N-terminus assumed
SMILES: CC[C@H](C)[C@H](NC)C(=O)N[C@H](C(=O)N[C@@H](CC(C)C)C(=O)N[C@@H](CO)C(=O)N[C@@H](CC(C)C)C(=O)N[C@@H](CC(=O)O)C(=O)N[C@@H](C(=O)N1CCC[C@H]1C(=O)N[C@H](C(=O)N[C@@H](CCCCN)C(=O)N[C@@H](CC(C)C)C(=O)N[C@@H](CCCCNC(=O)COCCOCCNC(=O)COCCOCCNC(=O)CC[C@H](NC(=O)CCCCCCCCCCCCCCCCC(=O)O)C(=O)O)C(=O)N[C@@H](CCCCN)C(=O)N[C@H](C(=O)N[C@@H](CC(C)C)C(=O)N[C@@H](CC(C)C)C(=O)N[C@@H](CCC(=O)O)C(=O)N[C@@H](CCC(N)=O)C(=O)N[C@@H](CCC(=O)O)C(=O)N[C@@H](CCCCN)C(=O)N[C@@H](CCC(N)=O)C(=O)N[C@@H](CCCCN)C(=O)N[C@@H](CCCCN)C(=O)N[C@@H](CCC(N)=O)C(=O)N[C@@H](CCCNC(=N)N)C(=O)N[C@@H](CCC(=O)O)C(=O)N[C@@H](CCC(N)=O)C(=O)N[C@@H](C)C(=O)N[C@@H](CCC(=O)O)C(=O)N[C@H](C(=O)N[C@@H](CC(N)=O)C(=O)N[C@@H](C)C(=O)N[C@@H](CCC(N)=O)C(=O)N[C@H](C(=O)N[C@@H](CC(C)C)C(=O)N[C@@H](C)C(=O)N[C@@H](CCC(N)=O)C(=O)N[C@H](C(N)=O)C(C)C)[C@@H](C)CC)[C@@H](C)O)[C@@H](C)CC)[C@@H](C)CC)C(C)C)C(C)C
Consider B4, for which the “Emax (% I)” value in the test with CRF1R receptor was 6%. In addition, the EC50 [nM] (cAMP) in test [1] was found to be 0.35 nM.

B5: SEQ ID NO 122 (peptide)
peptide: Pentanoyl-VLSLD[dV]PIKLK([AEEA-AEEA-γGlu-C18 diacid])KILLEQEKQKKQREQAETNAQILAQV-NH2
SMILES: CCCCC(=O)N[C@H](C(=O)N[C@@H](CC(C)C)C(=O)N[C@@H](CO)C(=O)N[C@@H](CC(C)C)C(=O)N[C@@H](CC(=O)O)C(=O)N[C@@H](C(=O)N1CCC[C@H]1C(=O)N[C@H](C(=O)N[C@@H](CCCCN)C(=O)N[C@@H](CC(C)C)C(=O)N[C@@H](CCCCNC(=O)COCCOCCNC(=O)COCCOCCNC(=O)CC[C@H](NC(=O)CCCCCCCCCCCCCCCCC(=O)O)C(=O)O)C(=O)N[C@@H](CCCCN)C(=O)N[C@H](C(=O)N[C@@H](CC(C)C)C(=O)N[C@@H](CC(C)C)C(=O)N[C@@H](CCC(=O)O)C(=O)N[C@@H](CCC(N)=O)C(=O)N[C@@H](CCC(=O)O)C(=O)N[C@@H](CCCCN)C(=O)N[C@@H](CCC(N)=O)C(=O)N[C@@H](CCCCN)C(=O)N[C@@H](CCCCN)C(=O)N[C@@H](CCC(N)=O)C(=O)N[C@@H](CCCNC(=N)N)C(=O)N[C@@H](CCC(=O)O)C(=O)N[C@@H](CCC(N)=O)C(=O)N[C@@H](C)C(=O)N[C@@H](CCC(=O)O)C(=O)N[C@H](C(=O)N[C@@H](CC(N)=O)C(=O)N[C@@H](C)C(=O)N[C@@H](CCC(N)=O)C(=O)N[C@H](C(=O)N[C@@H](CC(C)C)C(=O)N[C@@H](C)C(=O)N[C@@H](CCC(N)=O)C(=O)N[C@H](C(N)=O)C(C)C)[C@@H](C)CC)[C@@H](C)O)[C@@H](C)CC)[C@@H](C)CC)C(C)C)C(C)C
Take B5: the “Emax (% I)” value in the test with CRF1R receptor amounted to 5%. In test [1], the EC50 [nM] (cAMP) was found to be 0.67 nM.

B6: SEQ ID NO 100 (peptide)
peptide: Ac-IVLSLD[dV]PIKLK([AEEA-AEEA-γGlu-C18 diacid])KILLEQEKQKKQREQAETNAQILAQV-NH2
SMILES: CC[C@H](C)[C@H](NC(C)=O)C(=O)N[C@H](C(=O)N[C@@H](CC(C)C)C(=O)N[C@@H](CO)C(=O)N[C@@H](CC(C)C)C(=O)N[C@@H](CC(=O)O)C(=O)N[C@@H](C(=O)N1CCC[C@H]1C(=O)N[C@H](C(=O)N[C@@H](CCCCN)C(=O)N[C@@H](CC(C)C)C(=O)N[C@@H](CCCCNC(=O)COCCOCCNC(=O)COCCOCCNC(=O)CC[C@H](NC(=O)CCCCCCCCCCCCCCCCC(=O)O)C(=O)O)C(=O)N[C@@H](CCCCN)C(=O)N[C@H](C(=O)N[C@@H](CC(C)C)C(=O)N[C@@H](CC(C)C)C(=O)N[C@@H](CCC(=O)O)C(=O)N[C@@H](CCC(N)=O)C(=O)N[C@@H](CCC(=O)O)C(=O)N[C@@H](CCCCN)C(=O)N[C@@H](CCC(N)=O)C(=O)N[C@@H](CCCCN)C(=O)N[C@@H](CCCCN)C(=O)N[C@@H](CCC(N)=O)C(=O)N[C@@H](CCCNC(=N)N)C(=O)N[C@@H](CCC(=O)O)C(=O)N[C@@H](CCC(N)=O)C(=O)N[C@@H](C)C(=O)N[C@@H](CCC(=O)O)C(=O)N[C@H](C(=O)N[C@@H](CC(N)=O)C(=O)N[C@@H](C)C(=O)N[C@@H](CCC(N)=O)C(=O)N[C@H](C(=O)N[C@@H](CC(C)C)C(=O)N[C@@H](C)C(=O)N[C@@H](CCC(N)=O)C(=O)N[C@H](C(N)=O)C(C)C)[C@@H](C)CC)[C@@H](C)O)[C@@H](C)CC)[C@@H](C)CC)C(C)C)C(C)C
Turning to B6, the “Emax (% I)” value with CRF1R receptor turned out to be 8%. The molecule also returned an EC50 [nM] (cAMP) in test [1] of 0.41 nM.

Source of the values: US20260001928A1 (CORTERIA PHARMACEUTICALS, priority 2022, published 2026).
